Reference: article PMC4140855, “Production of an Attenuated Phenol-Soluble Modulin Variant Unique to the MRSA Clonal Complex 30 Increases Severity of Bloodstream Infection” (PLoS Pathogens, 2014)
Where no end group is shown, it is not given here. The star is where a group is joined. For = O=C*

Legend:
Assay in all cases: Ca2+ flux in FPR-transfected HL60 cells, one-site binding model
FPR2 = molecular target: T1, FPR2 (Homo sapiens, UniProt P25090)
T1 chain: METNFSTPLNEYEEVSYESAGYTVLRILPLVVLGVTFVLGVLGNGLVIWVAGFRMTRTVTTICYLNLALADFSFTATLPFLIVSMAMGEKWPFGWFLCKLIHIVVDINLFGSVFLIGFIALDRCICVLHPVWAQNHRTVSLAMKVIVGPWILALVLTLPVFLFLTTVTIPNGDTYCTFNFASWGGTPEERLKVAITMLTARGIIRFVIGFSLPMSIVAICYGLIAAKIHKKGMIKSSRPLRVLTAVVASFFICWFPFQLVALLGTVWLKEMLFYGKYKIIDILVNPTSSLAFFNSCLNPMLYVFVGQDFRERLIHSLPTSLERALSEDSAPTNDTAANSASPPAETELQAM

FPR1 = molecular target: T2, FPR1 (Homo sapiens, UniProt P21462)
T2 chain: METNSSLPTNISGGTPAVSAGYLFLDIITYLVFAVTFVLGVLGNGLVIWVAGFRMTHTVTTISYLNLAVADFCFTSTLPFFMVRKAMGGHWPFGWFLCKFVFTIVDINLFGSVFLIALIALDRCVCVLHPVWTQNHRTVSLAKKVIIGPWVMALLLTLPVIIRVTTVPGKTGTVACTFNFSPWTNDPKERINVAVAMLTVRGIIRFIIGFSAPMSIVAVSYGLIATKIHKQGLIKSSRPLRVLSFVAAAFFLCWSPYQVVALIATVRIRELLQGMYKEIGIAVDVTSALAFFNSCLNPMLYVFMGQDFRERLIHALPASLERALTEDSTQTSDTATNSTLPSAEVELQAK

FPR3 = molecular target: T3, FPR3 (Homo sapiens, UniProt P25089)
T3 chain: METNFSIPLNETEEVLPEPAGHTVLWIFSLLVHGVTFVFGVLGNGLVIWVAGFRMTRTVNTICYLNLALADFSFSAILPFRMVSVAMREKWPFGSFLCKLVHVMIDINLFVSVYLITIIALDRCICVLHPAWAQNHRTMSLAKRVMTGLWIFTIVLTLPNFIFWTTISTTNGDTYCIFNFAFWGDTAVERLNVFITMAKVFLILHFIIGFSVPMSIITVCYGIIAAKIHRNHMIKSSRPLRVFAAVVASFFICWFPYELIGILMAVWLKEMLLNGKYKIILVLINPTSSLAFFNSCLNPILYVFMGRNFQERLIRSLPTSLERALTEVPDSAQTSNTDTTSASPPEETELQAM

B1: PSMα3 (peptide)
chain: For-MEFVAKLFKFFKDLLGKFLGNN
Kd (FPR2): 11.9 nM | Kd (FPR1): 616 nM | Kd (FPR3): 1380 nM
